Paper PMC9352680, “A comprehensive thermodynamic model for RNA binding by the Saccharomyces cerevisiae Pumilio protein PUF4”

T1: PUF4 RNA-binding domain (Saccharomyces cerevisiae, UniProt P25339 537-888)
T1 sequence: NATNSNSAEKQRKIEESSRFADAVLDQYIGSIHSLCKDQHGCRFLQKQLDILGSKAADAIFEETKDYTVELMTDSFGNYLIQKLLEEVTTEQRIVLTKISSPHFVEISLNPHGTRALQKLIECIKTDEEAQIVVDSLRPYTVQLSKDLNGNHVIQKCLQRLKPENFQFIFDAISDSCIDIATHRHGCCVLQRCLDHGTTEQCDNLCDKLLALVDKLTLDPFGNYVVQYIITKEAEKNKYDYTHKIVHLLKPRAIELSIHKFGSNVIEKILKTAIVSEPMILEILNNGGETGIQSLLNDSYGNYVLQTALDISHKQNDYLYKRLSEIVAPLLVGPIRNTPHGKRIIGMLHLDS


Target: T1, PUF4 RNA-binding domain
Assay: Mg; RNA-MaP; 20 mM Na-HEPES pH 7.4, 30 mM KOAc, 0.75 mM MgCl2, 0.1% Tween-20, 5% glycerol, 0.1 mg/mL BSA, 2 mM DTT; 25 C; 0.0125-409.6 nM protein
Conditions: tags: N-His6-TEV cleaved; C-SNAP kept, Cy3B-labelled; label: tethered on chip by stalled RNA polymerase

Binder | Kd [nM]
UCUCUUUUUAUUUAUCUCUU (ssRNA) [Ib_S1_P3E.1_K3.1_C3.1_H3.1_[G2T]_A3.1_[A6T]_F3.1_T3.1] | > 2300
UCUCUUUGUAUAUUCUCUCUU (ssRNA) [Ic_S1_P4E.1_K4.1_C4.1_H4.1_A4.1_F4.1_[A9C]_T4.1] | 6.17
UCUCUUUAUAUUUAUCUCUU (ssRNA) [Ib_S1_P3E.1_K3.1_C3.1_H3.1_[G2A]_A3.1_[A6T]_F3.1_T3.1] | > 2300
Ic_S2_P3E.1_K3.1_C3.1_H3.1_A3.1_[T5C]_[A6T]_F3.1_[A8T]_T3.1 (ssRNA) RNA: UUUGAUUAAUAUGAUAUCGUUCUUUCUUGUACUUUUUCUUUCUCGAUAUCAUAUUAAUCUUU | 9.88
Ic_S2_P3E.1_K3.1_C3.1_H3.1_A3.1_[A6C]_F3.1_[T7A]_[A8G]_T3.1 (ssRNA) RNA: UUUGAUUAAUAUGAUAUCGUUCUUUCUUGUAUCAGUUCUUUCUCGAUAUCAUAUUAAUCUUU | 208
Ic_S2_P3E.1_K3.1_C3.1_H3.1_A3.1_[T5A]_[A6T]_F3.1_[T7A]_[A8G]_T3.1 (ssRNA) RNA: UUUGAUUAAUAUGAUAUCGUUCUUUCUUGUAAUAGUUCUUUCUCGAUAUCAUAUUAAUCUUU | 1530
Ic_S2_P3E.1_K3.1_C3.1_H3.1_A3.1_[A6G]_F3.1_[T7G]_[A8C]_T3.1 (ssRNA) RNA: UUUGAUUAAUAUGAUAUCGUUCUUUCUUGUAUGGCUUCUUUCUCGAUAUCAUAUUAAUCUUU | 950
Ic_S2_P3E.1_K3.1_C3.1_H3.1_A3.1_[A6T]_F3.1_[T7C]_[A8C]_T3.1 (ssRNA) RNA: UUUGAUUAAUAUGAUAUCGUUCUUUCUUGUAUUCCUUCUUUCUCGAUAUCAUAUUAAUCUUU | 76
Ic_S2_P3E.1_K3.1_C3.1_H3.1_A3.1_[A6C]_F3.1_[T7C]_[A8C]_T3.1 (ssRNA) RNA: UUUGAUUAAUAUGAUAUCGUUCUUUCUUGUAUCCCUUCUUUCUCGAUAUCAUAUUAAUCUUU | 132
Ic_S2_P3E.1_K3.1_C3.1_H3.1_A3.1_[T5A]_[A6C]_F3.1_[T7G]_[A8G]_T3.1 (ssRNA) RNA: UUUGAUUAAUAUGAUAUCGUUCUUUCUUGUAACGGUUCUUUCUCGAUAUCAUAUUAAUCUUU | 984
Ic_S2_P3E.1_K3.1_C3.1_H3.1_A3.1_[T5A]_[A6T]_F3.1_[A8C]_T3.1 (ssRNA) RNA: UUUGAUUAAUAUGAUAUCGUUCUUUCUUGUAAUUCUUCUUUCUCGAUAUCAUAUUAAUCUUU | 120
Ic_S2_P3E.1_K3.1_C3.1_H3.1_A3.1_[A6T]_F3.1_[T7G]_[A8C]_T3.1 (ssRNA) RNA: UUUGAUUAAUAUGAUAUCGUUCUUUCUUGUAUUGCUUCUUUCUCGAUAUCAUAUUAAUCUUU | 442
Ic_S2_P3E.1_K3.1_C3.1_H3.1_A3.1_[A6C]_F3.1_[T7A]_[A8T]_T3.1 (ssRNA) RNA: UUUGAUUAAUAUGAUAUCGUUCUUUCUUGUAUCAUUUCUUUCUCGAUAUCAUAUUAAUCUUU | 4.83
Ic_S2_P3E.1_K3.1_C3.1_H3.1_A3.1_[T5A]_[A6C]_F3.1_[T7C]_[A8G]_T3.1 (ssRNA) RNA: UUUGAUUAAUAUGAUAUCGUUCUUUCUUGUAACCGUUCUUUCUCGAUAUCAUAUUAAUCUUU | 626
Ic_S2_P3E.1_K3.1_C3.1_H3.1_A3.1_[A6T]_F3.1_[T7C]_[A8G]_T3.1 (ssRNA) RNA: UUUGAUUAAUAUGAUAUCGUUCUUUCUUGUAUUCGUUCUUUCUCGAUAUCAUAUUAAUCUUU | 234
Ic_S2_P3E.1_K3.1_C3.1_H3.1_A3.1_[T5C]_F3.1_[T7G]_[A8C]_T3.1 (ssRNA) RNA: UUUGAUUAAUAUGAUAUCGUUCUUUCUUGUACAGCUUCUUUCUCGAUAUCAUAUUAAUCUUU | 35.4
Ic_S2_P3E.1_K3.1_C3.1_H3.1_A3.1_[T5A]_[A6T]_F3.1_[T7A]_[A8T]_T3.1 (ssRNA) RNA: UUUGAUUAAUAUGAUAUCGUUCUUUCUUGUAAUAUUUCUUUCUCGAUAUCAUAUUAAUCUUU | 11.6
Ic_S2_P3E.1_K3.1_C3.1_H3.1_A3.1_[T5A]_F3.1_[T7A]_[A8C]_T3.1 (ssRNA) RNA: UUUGAUUAAUAUGAUAUCGUUCUUUCUUGUAAAACUUCUUUCUCGAUAUCAUAUUAAUCUUU | 621
Ic_S2_P3E.1_K3.1_C3.1_H3.1_A3.1_[T5A]_[A6C]_F3.1_[T7C]_[A8T]_T3.1 (ssRNA) RNA: UUUGAUUAAUAUGAUAUCGUUCUUUCUUGUAACCUUUCUUUCUCGAUAUCAUAUUAAUCUUU | 23.5
Ic_S2_P3E.1_K3.1_C3.1_H3.1_A3.1_[T5A]_[A6C]_F3.1_[T7A]_[A8T]_T3.1 (ssRNA) RNA: UUUGAUUAAUAUGAUAUCGUUCUUUCUUGUAACAUUUCUUUCUCGAUAUCAUAUUAAUCUUU | 8.69
Ic_S2_P3E.1_K3.1_C3.1_H3.1_A3.1_[T5C]_F3.1_[T7A]_[A8G]_T3.1 (ssRNA) RNA: UUUGAUUAAUAUGAUAUCGUUCUUUCUUGUACAAGUUCUUUCUCGAUAUCAUAUUAAUCUUU | 1630
Ic_S2_P3E.1_K3.1_C3.1_H3.1_A3.1_[A6T]_F3.1_[T7C]_[A8T]_T3.1 (ssRNA) RNA: UUUGAUUAAUAUGAUAUCGUUCUUUCUUGUAUUCUUUCUUUCUCGAUAUCAUAUUAAUCUUU | 11.9
Ic_S2_P3E.1_K3.1_C3.1_H3.1_A3.1_[T5A]_[A6T]_F3.1_[T7G]_[A8T]_T3.1 (ssRNA) RNA: UUUGAUUAAUAUGAUAUCGUUCUUUCUUGUAAUGUUUCUUUCUCGAUAUCAUAUUAAUCUUU | 174
Ic_S2_P3E.1_K3.1_C3.1_H3.1_A3.1_[A6C]_F3.1_[T7G]_[A8T]_T3.1 (ssRNA) RNA: UUUGAUUAAUAUGAUAUCGUUCUUUCUUGUAUCGUUUCUUUCUCGAUAUCAUAUUAAUCUUU | 114

Binder | Kd [nM]
Ic_S2_P3E.1_K3.1_C3.1_H3.1_A3.1_[T5A]_[A6T]_F3.1_[A8T]_T3.1 (ssRNA) RNA: UUUGAUUAAUAUGAUAUCGUUCUUUCUUGUAAUUUUUCUUUCUCGAUAUCAUAUUAAUCUUU | 19.2
Ic_S2_P3E.1_K3.1_C3.1_H3.1_A3.1_[T5C]_F3.1_[T7A]_[A8C]_T3.1 (ssRNA) RNA: UUUGAUUAAUAUGAUAUCGUUCUUUCUUGUACAACUUCUUUCUCGAUAUCAUAUUAAUCUUU | 23.8
Ic_S2_P3E.1_K3.1_C3.1_H3.1_A3.1_[T5A]_[A6C]_F3.1_[A8G]_T3.1 (ssRNA) RNA: UUUGAUUAAUAUGAUAUCGUUCUUUCUUGUAACUGUUCUUUCUCGAUAUCAUAUUAAUCUUU | 101
Ic_S2_P3E.1_K3.1_C3.1_H3.1_A3.1_[T5A]_F3.1_[T7C]_[A8T]_T3.1 (ssRNA) RNA: UUUGAUUAAUAUGAUAUCGUUCUUUCUUGUAAACUUUCUUUCUCGAUAUCAUAUUAAUCUUU | 19.9
Ic_S2_P3E.1_K3.1_C3.1_H3.1_A3.1_[T5A]_[A6T]_F3.1_[T7C]_[A8T]_T3.1 (ssRNA) RNA: UUUGAUUAAUAUGAUAUCGUUCUUUCUUGUAAUCUUUCUUUCUCGAUAUCAUAUUAAUCUUU | 22.5
Ic_S2_P3E.1_K3.1_C3.1_H3.1_A3.1_[A6C]_F3.1_[T7C]_[A8T]_T3.1 (ssRNA) RNA: UUUGAUUAAUAUGAUAUCGUUCUUUCUUGUAUCCUUUCUUUCUCGAUAUCAUAUUAAUCUUU | 13.7
Ic_S2_P3E.1_K3.1_C3.1_H3.1_A3.1_[A6G]_F3.1_[T7C]_[A8C]_T3.1 (ssRNA) RNA: UUUGAUUAAUAUGAUAUCGUUCUUUCUUGUAUGCCUUCUUUCUCGAUAUCAUAUUAAUCUUU | 585
Ic_S2_P3E.1_K3.1_C3.1_H3.1_A3.1_F3.1_T3.1 (ssRNA) RNA: UUUGAUUAAUAUGAUAUCGUUCUUUCUUGUAUAUAUUCUUUCUCGAUAUCAUAUUAAUCUUU | 1.38
Ic_S2_P3E.1_K3.1_C3.1_H3.1_A3.1_[T5C]_F3.1_[T7G]_[A8T]_T3.1 (ssRNA) RNA: UUUGAUUAAUAUGAUAUCGUUCUUUCUUGUACAGUUUCUUUCUCGAUAUCAUAUUAAUCUUU | 13.1
Ic_S2_P3E.1_K3.1_C3.1_H3.1_A3.1_[T5C]_F3.1_[T7C]_[A8T]_T3.1 (ssRNA) RNA: UUUGAUUAAUAUGAUAUCGUUCUUUCUUGUACACUUUCUUUCUCGAUAUCAUAUUAAUCUUU | 2.64
Ic_S2_P3E.1_K3.1_C3.1_H3.1_A3.1_[T5C]_F3.1_[T7C]_[A8G]_T3.1 (ssRNA) RNA: UUUGAUUAAUAUGAUAUCGUUCUUUCUUGUACACGUUCUUUCUCGAUAUCAUAUUAAUCUUU | 31.5
Ic_S2_P3E.1_K3.1_C3.1_H3.1_A3.1_[T5C]_F3.1_[T7C]_[A8C]_T3.1 (ssRNA) RNA: UUUGAUUAAUAUGAUAUCGUUCUUUCUUGUACACCUUCUUUCUCGAUAUCAUAUUAAUCUUU | 17.3
Ic_S2_P3E.1_K3.1_C3.1_H3.1_A3.1_[T5A]_[A6T]_F3.1_[T7A]_[A8C]_T3.1 (ssRNA) RNA: UUUGAUUAAUAUGAUAUCGUUCUUUCUUGUAAUACUUCUUUCUCGAUAUCAUAUUAAUCUUU | 158
Ic_S2_P3E.1_K3.1_C3.1_H3.1_A3.1_[T5A]_[A6C]_F3.1_[T7A]_[A8G]_T3.1 (ssRNA) RNA: UUUGAUUAAUAUGAUAUCGUUCUUUCUUGUAACAGUUCUUUCUCGAUAUCAUAUUAAUCUUU | 947
Ic_S2_P4E.1_K4.1_C4.1_H4.1_A4.1_[T5G]_[A6C]_[T7G]_F4.1_[T8G]_[A9T]_T4.1 (ssRNA) RNA: UUUGAUUAAUAUGAUAUCGUUCUUUCUUGUAGCGGUUUCUUUCUCGAUAUCAUAUUAAUCUUU | 808
Ic_S2_P4E.1_K4.1_C4.1_H4.1_A4.1_[T5G]_[A6C]_[T7G]_F4.1_[T8C]_[A9G]_T4.1 (ssRNA) RNA: UUUGAUUAAUAUGAUAUCGUUCUUUCUUGUAGCGCGUUCUUUCUCGAUAUCAUAUUAAUCUUU | > 2300
Ic_S2_P4E.1_K4.1_C4.1_H4.1_A4.1_[T5G]_[A6C]_[T7G]_F4.1_T4.1 (ssRNA) RNA: UUUGAUUAAUAUGAUAUCGUUCUUUCUUGUAGCGUAUUCUUUCUCGAUAUCAUAUUAAUCUUU | 9.8
Ic_S2_P4E.1_K4.1_C4.1_H4.1_A4.1_[T5G]_[A6C]_[T7C]_F4.1_[T8C]_[A9G]_T4.1 (ssRNA) RNA: UUUGAUUAAUAUGAUAUCGUUCUUUCUUGUAGCCCGUUCUUUCUCGAUAUCAUAUUAAUCUUU | 1680
Ic_S2_P4E.1_K4.1_C4.1_H4.1_A4.1_[T5G]_[A6C]_[T7C]_F4.1_[T8G]_[A9C]_T4.1 (ssRNA) RNA: UUUGAUUAAUAUGAUAUCGUUCUUUCUUGUAGCCGCUUCUUUCUCGAUAUCAUAUUAAUCUUU | > 2300
Ic_S2_P4E.1_K4.1_C4.1_H4.1_A4.1_[T5G]_[A6C]_[T7G]_F4.1_[T8C]_[A9C]_T4.1 (ssRNA) RNA: UUUGAUUAAUAUGAUAUCGUUCUUUCUUGUAGCGCCUUCUUUCUCGAUAUCAUAUUAAUCUUU | 750
Ic_S2_P4E.1_K4.1_C4.1_H4.1_A4.1_[T5G]_[A6C]_[T7G]_F4.1_[A9C]_T4.1 (ssRNA) RNA: UUUGAUUAAUAUGAUAUCGUUCUUUCUUGUAGCGUCUUCUUUCUCGAUAUCAUAUUAAUCUUU | 782
UCUCUUUUUAUCUAUCUCUU (ssRNA) [Ib_S1_P3E.1_K3.1_C3.1_H3.1_[G2T]_A3.1_[A6C]_F3.1_T3.1] | > 2300
UCUCUUUAUAUGUAUCUCUU (ssRNA) [Ib_S1_P3E.1_K3.1_C3.1_H3.1_[G2A]_A3.1_[A6G]_F3.1_T3.1] | 384
